Residue numbers refer to the chain shown, from its start. Each block holds one binder with its values, some of them ahead of it.
Legend:
[1] = biological target: T1, human TNFR2 on the cell surface (CHO-TNFR2 cells; human Treg cells) (human, UniProt P20333 23-461); assay: flow cytometry, blocking of TNFα-biotin on CHO-TNFR2 cells; AUC for 002# / AUC for antibody x 100
T1 construct: whole, on cells; The assay field of each row says which cells; also called TNFR2-CHO cell; TNFR2 on Treg cells
T1 sequence (looked up): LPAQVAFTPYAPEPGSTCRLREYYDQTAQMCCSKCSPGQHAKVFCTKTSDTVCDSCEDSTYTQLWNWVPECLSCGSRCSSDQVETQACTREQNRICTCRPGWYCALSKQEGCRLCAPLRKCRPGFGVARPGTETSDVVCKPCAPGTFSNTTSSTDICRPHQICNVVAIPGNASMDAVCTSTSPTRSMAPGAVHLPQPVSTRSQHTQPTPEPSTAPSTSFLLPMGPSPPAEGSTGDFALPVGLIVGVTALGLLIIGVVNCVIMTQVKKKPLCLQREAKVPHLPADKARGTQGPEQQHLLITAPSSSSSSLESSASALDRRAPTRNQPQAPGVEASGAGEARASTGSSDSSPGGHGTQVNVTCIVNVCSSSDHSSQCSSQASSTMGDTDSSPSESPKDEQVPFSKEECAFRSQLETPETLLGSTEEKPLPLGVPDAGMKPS
Method: CHO cells that stably overexpressed human TNFR2 were used for experiments. The cells were resuscitated and passaged until in good state, and the expression level of human TNFR2 on the cells was assessed by FACS. Compared to the isotype control, the assay could be carried out when the fold change of mean fluorescence intensity (MFI) was more than 100 times.
CHO-TNFR2 cells were digested, washed twice with DPBS and stained with Live/Dead (L/D) at room temperature for 20 min, and then seeded at 1×10⁵ cells/50 μl/well. […] The diluted antibodies were added 50 μl/well into wells pre-seeded with cells, and gently blown and mixed to make the final concentrations of the antibodies to 20, 6.67, 2.22, 0.74, 0.247, 0.08, 0.027 and 0 nM, respectively followed by incubation at 4° C. for 30 min. […] After washing twice with the staining buffer, 100 μl/well of PE-streptavidin was added and incubated at 4° C. for 30 min. After additional washing with the staining buffer twice, 150 μl resuspended cells was analyzed using an flow cytometry. Taking the logarithmic value of the antibody concentrations as abscissa and the corresponding MFI value as ordinate, the inhibition curve of the antibody was drawn, and the IC50 value was calculated by four parameters fitting.

[2] = biological target: T1, human TNFR2 on the cell surface …; assay: cell-based or functional assay
[3] = biological target: T2, human TNFR2 (Novoprotein, Catalog No. C830) (human, UniProt P20333 23-257, limits assumed); assay: blocking ELISA, TNFα-biotin on coated human TNFR2, antibody 20 nM
T2 construct: construct not described; also called TNFR2 protein
T2 sequence (looked up): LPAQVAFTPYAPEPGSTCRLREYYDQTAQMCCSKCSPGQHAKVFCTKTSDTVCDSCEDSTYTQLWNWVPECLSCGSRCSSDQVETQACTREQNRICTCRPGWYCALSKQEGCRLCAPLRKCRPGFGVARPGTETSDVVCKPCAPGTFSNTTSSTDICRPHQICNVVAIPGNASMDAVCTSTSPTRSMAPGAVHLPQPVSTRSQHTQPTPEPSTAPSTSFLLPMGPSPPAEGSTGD
Method: A microplate was pre-coated with 100 μl/well of 1 μg/ml human TNFR2 (Novoprotein, Catalog No. C830). […] After washing the plate, a Streptavidin-HRP working solution (1:10000 dilution) was added at 100 μl/well, and incubated with shaking at room temperature for 40 min. The plate was washed again, the HRP substrate TMB was added for color development, the termination solution was added to terminate the reaction, and the microplate reader was used to read the absorption value.

[4] = biological target: T3, cynomolgus TNFR2 (Sino 90102-C08H) (cynomolgus, UniProt A0A2K5VET2 132-366); assay: ELISA, coated antigen 0.5 ug/ml, antibody 12 ng/ml
T3 construct: also called CynoTNFR2 (His tag)
T3 sequence: T2 sequence (looked up) with S16G, S36P, P117Q, N164H, E210A, S216G, M223V

[5] = biological target: T4, Human TNFR2 recombinant protein (Sino 10417-H08H) (human, UniProt P20333 23-257); assay: SPR Biacore, antibody on Protein A chip, TNFR2 analyte
T4 construct: also called hTNFR2 (His tag)
T4 sequence (looked up): T2 sequence (looked up)
Method: (§1) In this experiment, Protein A chip was used, and the time required for the chip to capture the diluted antibody was determined by manual run, so that the Rmax of the saturated binding antigen was 50 RU. Human TNFR2 (Sino 10417-H08H) and cynomolgus TNFR2 (Sino 90102-C08H) were diluted to 32, 16, 8, 4, 2 nM. The affinity of antibody and antigen was measured by multi-cycle kinetics. In each cycle, anti-TNFR2 antibodies were injected prior to the injection of gradient concentrations of TNFR2 protein allowing the occurrence of antibody-antigen association and dissociation. After each cycle, the Protein A chip was regenerated with Glycine pH1.5 (to remove the protein on the chip). BIAcore T200 analysis software was used to calculate the affinity KD of antibody binding to antigen.

[6] = biological target: T3, cynomolgus TNFR2 (Sino 90102-C08H); assay: as above
Method: as §1

AUC % [1]: 92.4%
% AUC versus positive control (#52), ADCC against Treg [2]: 56%
ELISA OD of antibodies to be tested (20 nM) [3]: 0.34 OD
ELISA OD [4]: 2.27 OD
Kd [5]: 1.44 nM
koff [5]: 0.000748 s⁻¹
kon [5]: 519000 M⁻¹ s⁻¹
Kd [6]: 2.48 nM
koff [6]: 0.00212 s⁻¹
kon [6]: 854000 M⁻¹ s⁻¹
B1: TNFR2 antibody #309 (antibody, V domains shown)
VH: EVQLQESGAELVKPGASVKLSCKASGYTFTSYWIHWVKLRPGQGFEWIGEINPNNGGTDYNEKFKRKATLTVDKSSSTAYMELSSLTSEDSAIYYCTIDSMITTTWFAYWGQGTTVTVSS
VL: EIVMTQSQKLMSTVVGDRVSVTCKASQNVGTNVAWFQQKPGQSPKALINSASYRYSGVPDRFTGSGSGTDFTLTISSVQSEDLAEYFCQQYNSYPFTFGSGTKLEIK

AUC % [1]: 75.4%
% AUC versus positive control (#52), ADCC against Treg [2]: 45.3%
ELISA OD of antibodies to be tested (20 nM) [3]: 0.35 OD
ELISA OD [4]: 1.44 OD
Kd [5]: 0.107 nM
koff [5]: 5.46e-05 s⁻¹
kon [5]: 510000 M⁻¹ s⁻¹
Kd [6]: 0.286 nM
koff [6]: 0.000172 s⁻¹
kon [6]: 601000 M⁻¹ s⁻¹
B2: TNFR2 antibody #088 (antibody, V domains shown)
VH: EVQLQESGGGLVQPGGSLNLSCAASGFAFSTYDLSWVRQTPGKRLEWVAYINNGGISTYYSDTVKGRFTITRDNAKNTLYLQMSSLKSEDTAMYYCVRGPFYGSANYFDYWGQGTTVTVSS
VL: DILMTQSPASLSLFVGETVTITCRASENIYSNLAWYQQKQGKSPQLLVYDATKLAEGVPSRFSGSESGTQYSLKINSLQSEDFGTYYCQHFWVTPWTFGGGTKLEIK

— patent US20220017630A1 (JIANGSU SIMCERE PHARMACEUTICAL, published 2022)
